Patent US20260297181 (published 2026)
Changes are numbered by the printed parent chain. Names and notes keep the numbering of the source.

B1: WT anti-insulin scFv (HB125) (antibody)
chain: MAQIQLVQSGPELKKPGETVKISCKASGYTFTDYSMHWVKQAPGKGLKWMDWINTETGVPTYADDFKGRFAFSLETSANTAYLQINDLKNEDTATYFCTRGYGKGYFDVWGAGTTVTVSSAKSTPPSVYPLAPGSGGGGSGGGGSGGGGSQIVLTQSPTIMSASLGERVTMTCTASSSVSSSYLHWYQQKPGSSPKLWIYSTSNLASGVPARFSGSGSGTSYSLTISSMEAEDAATYYCHQYHRSPPTFGAGTKLELKRADAA
B2: gsLOV (antibody)
chain: MAQIQLVQSGPELKKPGETVKISCKASGYTFTDYSMHWVKQAPGKGLKWMDWINTETGVPTYADDFKGRFAFSLETSANTAYLQINDLKNEDTATYFCTRGYGKGYFDVWGAGTTVTVSSAKSTPPSVYPLAPGSGGGGSGEFLATTLERIEKNFVITDPRLPDNPIIFASDSFLQLTEYSREEILGRNCRFLQGPETDRATVRKIRDAIDNQTEVTVQLINYTKSGKKFWNLFHLQPMRDQKGDVQYFIGVQLDGTEHVRDAAEREAVMLIKKTAEEIDEAAKELGGGGSQIVLTQSPTIMSASLGERVTMTCTASSSVSSSYLHWYQQKPGSSPKLWIYSTSNLASGVPARFSGSGSGTSYSLTISSMEAEDAATYYCHQYHRSPPTFGAGTKLELKRADAAKL
B3: gsLOV I272E, A276E "light" (antibody)
chain: B2 chain with I272E, A276E
B4: gsLOV C190A "dark" (antibody)
chain: B2 chain with C190A
B5: nolinkLOV C185A "dark" (antibody)
chain: MAQIQLVQSGPELKKPGETVKISCKASGYTFTDYSMHWVKQAPGKGLKWMDWINTETGVPTYADDFKGRFAFSLETSANTAYLQINDLKNEDTATYFCTRGYGKGYFDVWGAGTTVTVSSAKSTPPSVYPLAPGSGEFLATTLERIEKNFVITDPRLPDNPIIFASDSFLQLTEYSREEILGRNARFLQGPETDRATVRKIRDAIDNQTEVTVQLINYTKSGKKFWNLFHLQPMRDQKGDVQYFIGVQLDGTEHVRDAAEREAVMLIKKTAEEIDEAAKELQIVLTQSPTIMSASLGERVTMTCTASSSVSSSYLHWYQQKPGSSPKLWIYSTSNLASGVPARFSGSGSGTSYSLTISSMEAEDAATYYCHQYHRSPPTFGAGTKLELKRADAAKL
B6: nolinkLOV I267E, A271E "light" (antibody)
chain: B5 chain with A185C, I267E, A271E
B7: nolinkLOV (antibody)
chain: B5 chain with A185C

Target: T1, insulin (human, UniProt P01308)
T1 sequence (P01308 25-54, chain 1 of 2): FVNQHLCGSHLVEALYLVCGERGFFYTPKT
T1 sequence (P01308 90-110, chain 2 of 2): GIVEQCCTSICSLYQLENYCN
Test: BLI

Binder	Kd [nM]
B1	55.2
B2	100
B3	63.8
B4	104

Target: T1, insulin
Test: BLI
Remark: another data set of the same source

Binder	Kd [nM]
B5	198
B6	68.7
B7	78.5
B1	55.2
